Target: T1, Trs31 (subunit of the recombinant TRAPPIII complex) (S. cerevisiae, UniProt Q03337 1-283)
T1 sequence: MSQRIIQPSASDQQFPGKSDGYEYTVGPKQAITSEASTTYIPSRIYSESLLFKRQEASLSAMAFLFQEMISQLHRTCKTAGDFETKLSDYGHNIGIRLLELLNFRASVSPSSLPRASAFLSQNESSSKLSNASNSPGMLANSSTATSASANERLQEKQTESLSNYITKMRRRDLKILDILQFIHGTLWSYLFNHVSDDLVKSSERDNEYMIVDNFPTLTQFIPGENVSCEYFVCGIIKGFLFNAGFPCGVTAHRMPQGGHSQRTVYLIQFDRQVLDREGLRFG
Assay: cryo-EM structure

binding result: binds
B1: Ypt1-7xHis (yeast Rab1/Ypt1 with the two C-terminal cysteines replaced by an affinity tag) (natural protein)
chain: not shown

Source: article doi:10.1101/2020.10.08.332312 (bioRxiv, 2020)
